{
  "source": "paper PMC12143593",
  "about": "“Selective engineering of condensation properties of single-stranded DNA binding (SSB) protein via its intrinsically disordered linker region”",
  "settings_in_all_cases": "protein: recombinant; tags: N-terminal His6-TEV, removed; chain copies: 4; label: fluorescein",
  "key": {"EcSSB d1G": {"target": "EcSSB d1G (Escherichia coli, UniProt P0AGE0 1-113+121-178, internal_change)", "test": "fluorescence polarization; n = 2.2; 20 mM Tris-acetate pH 8, 50 mM K-glutamate, 10 mM Mg-acetate, 25 C; 10 nM labeled oligo, SSB concentrations as tetramers"}, "EcSSB W136D": {"target": "EcSSB W136D (Escherichia coli, UniProt P0AGE0 1-178, W136D)", "test": "fluorescence polarization; n = 1.7; 20 mM Tris-acetate pH 8, 50 mM K-glutamate, 10 mM Mg-acetate, 25 C; 10 nM labeled oligo, SSB concentrations as tetramers"}, "EcSSB WT": {"target": "EcSSB WT (Escherichia coli, UniProt P0AGE0 1-178)", "test": "fluorescence polarization; n = 1.7; 20 mM Tris-acetate pH 8, 50 mM K-glutamate, 10 mM Mg-acetate, 25 C; 10 nM labeled oligo, SSB concentrations as tetramers"}, "EcSSB d2G": {"target": "EcSSB d2G (Escherichia coli, UniProt P0AGE0 1-113+131-178, internal_change)", "test": "fluorescence polarization; n = 1.8; 20 mM Tris-acetate pH 8, 50 mM K-glutamate, 10 mM Mg-acetate, 25 C; 10 nM labeled oligo, SSB concentrations as tetramers"}, "EcSSB R116D-W136D": {"target": "EcSSB R116D-W136D (Escherichia coli, UniProt P0AGE0 1-178, R116D;W136D)", "test": "fluorescence polarization; n = 1.8; 20 mM Tris-acetate pH 8, 50 mM K-glutamate, 10 mM Mg-acetate, 25 C; 10 nM labeled oligo, SSB concentrations as tetramers"}},
  "data": [
    {"binder": "dT79 (ssDNA) DNA: TTTTTTTTTTTTTTTTTTTTTTTTTTTTTTTTTTTTTTTTTTTTTTTTTTTTTTTTTTTTTTTTTTTTTTTTTTTTTTT", "values": [
      {"measurement": "Kd", "setting": "EcSSB d1G", "result": "11 ± 2.6", "unit": "nM"},
      {"measurement": "Kd", "setting": "EcSSB W136D", "result": "< 10", "unit": "nM"},
      {"measurement": "Kd", "setting": "EcSSB WT", "result": "< 10", "unit": "nM"},
      {"measurement": "Kd", "setting": "EcSSB d2G", "result": "11 ± 2.5", "unit": "nM"},
      {"measurement": "Kd", "setting": "EcSSB R116D-W136D", "result": "< 10", "unit": "nM"}
    ]}
  ]
}
